Experimental data published in paper PMC9927489 (Microbiology Spectrum, 2023).
pKd: −log10 of the molar value. Read-outs that look alike come from different tables or passages of the source.

Tests used:
[1] = target: Mycobacterium tuberculosis dUTPase mutant mDut H145F, His-tagged (Mycobacterium tuberculosis (strain H37Rv)) (UniProt P9WNS5); assay: BLI; […] (218.7 nM) […]; 28°C; 1:1 kinetic model
[2] = target: Mycobacterium tuberculosis dUTPase mutant mDut H145F, His-tagged (Mycobacterium tuberculosis (strain H37Rv)) (UniProt P9WNS5); assay: BLI; […] (218.7 nM) […]; 28°C; 1:1 kinetic model; remark: listed apart in the source

For “Stl^N-ter (SaPIbov1 Stl, N-terminal DNA-binding domain and middle domain, residues 1 to 156) (domain or fragment)”, the pKd [1] was 7.90, the pKd [2] was 7.90 and the koff [2] was 0.00483 s⁻¹. For the same substance, the kon [2] was 388000 M⁻¹ s⁻¹.
